B1: Bacterial lipocalin Blc^G84 (natural protein, E. coli, UniProt P0A901 19-177, looked up)
chain: CSSPTPPRGVTVVNNFDAKRYLGTWYEIARFDHRFERGLEKVTATYSLRDDGGLNVINKGYNPDRGMWQQSEGKAYFTGAPTRAALKVSFFGPFYGGYNVIALDREYRHALVCGPDRDYLWILSRTPTISDEVKQEMLAVATREGFDVSKFIWVQQPGS
B2: Bacterial lipocalin Blc^E84 (natural protein, E. coli, UniProt P0A901 19-177, looked up)
chain: CSSPTPPRGVTVVNNFDAKRYLGTWYEIARFDHRFERGLEKVTATYSLRDDGGLNVINKGYNPDREMWQQSEGKAYFTGAPTRAALKVSFFGPFYGGYNVIALDREYRHALVCGPDRDYLWILSRTPTISDEVKQEMLAVATREGFDVSKFIWVQQPGS

Target: the molecule itself
Test: cross-linking

Row | Protein | stoichiometry N
1 | B1 | 2
2 | B2 | 2

Source: article PMC7026729 (EBioMedicine, 2020)
